Assays:
[1] = target: T1, PABPC1 RRM1/2/3/4 (residues 1-370) (human, UniProt P11940 1-370); assay: NMR; RRM1/2/3/4 bound to A24 RNA; T438 signal
[2] = target: T1, PABPC1 RRM1/2/3/4 (residues 1-370); assay: NMR; RRM1/2/3/4 bound to A24 RNA; W437 signal

T1 sequence (P11940 1-370): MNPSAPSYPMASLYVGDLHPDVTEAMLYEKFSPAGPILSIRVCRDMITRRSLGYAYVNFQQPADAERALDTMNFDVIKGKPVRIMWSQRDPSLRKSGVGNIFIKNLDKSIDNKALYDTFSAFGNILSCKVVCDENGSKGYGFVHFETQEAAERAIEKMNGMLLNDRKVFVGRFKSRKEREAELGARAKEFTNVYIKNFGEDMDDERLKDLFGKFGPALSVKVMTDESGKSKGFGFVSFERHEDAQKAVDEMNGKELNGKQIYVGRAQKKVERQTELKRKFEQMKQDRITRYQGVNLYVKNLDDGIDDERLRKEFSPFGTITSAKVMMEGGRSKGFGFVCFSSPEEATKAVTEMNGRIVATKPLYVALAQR

Kd [1]: 24 µM | Kd [2]: 12 µM
Binder: AYYPPSQIAQLRPSPRWTAQGARPHPFQNMPGAIRPAAPRPPFSTMRPAS [PABPC1 linker fragment Lt2 (residues 421-470)]
